The values below come from paper PMC3245944 (Nucleic Acids Research, 2011).

Changes are numbered by the printed parent chain. Read-outs that look alike come from different tables or passages of the source.

Common to all, as to test: pull-down
The target in experiment [1] is T1, GST-tagged Mgs1 (S. cerevisiae, UniProt P40151 1-587).
T1 sequence: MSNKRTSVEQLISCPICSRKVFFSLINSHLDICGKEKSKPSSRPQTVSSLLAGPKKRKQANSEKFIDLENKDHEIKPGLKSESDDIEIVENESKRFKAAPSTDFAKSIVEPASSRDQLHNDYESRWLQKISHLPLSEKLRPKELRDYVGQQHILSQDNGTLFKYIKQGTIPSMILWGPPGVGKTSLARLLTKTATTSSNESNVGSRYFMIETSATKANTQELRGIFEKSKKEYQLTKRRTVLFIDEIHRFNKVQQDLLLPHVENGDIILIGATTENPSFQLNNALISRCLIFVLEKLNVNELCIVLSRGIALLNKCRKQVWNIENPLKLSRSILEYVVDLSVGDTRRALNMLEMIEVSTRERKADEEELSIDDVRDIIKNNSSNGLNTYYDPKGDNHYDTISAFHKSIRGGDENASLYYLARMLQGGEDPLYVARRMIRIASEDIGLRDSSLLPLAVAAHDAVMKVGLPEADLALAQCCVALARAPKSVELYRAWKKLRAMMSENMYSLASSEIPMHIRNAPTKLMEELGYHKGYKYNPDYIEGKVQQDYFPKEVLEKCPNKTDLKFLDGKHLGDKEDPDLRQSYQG

For experiment [2], the target named is T2, GST-tagged Mgs1* (D31A) (S. cerevisiae, UniProt P40151 1-587, D31A).
T2 sequence: T1 sequence with D31A

The target in experiment [3] is T1, GST-tagged Mgs1. The source holds these as a separate data set.
The target in experiment [4] is T2, GST-tagged Mgs1* (D31A). The source holds these as a separate data set.

B1: His6-tagged PCNA (natural protein)
chain: MLEAKFEEASLFKRIIDGFKDCVQLVNFQCKEDGIIAQAVDDSRVLLVSLEIGVEAFQEYRCDHPVTLGMDLTSLSKILRCGNNTDTLTLIADNTPDSIILLFEDTKKDRIAEYSLKLMDIDADFLKIEELQYDSTLSLPSSEFSKIVRDLSQLSDSINIMITKETIKFVADGDIGSGSVIIKPFVDMEHPETSIKLEMDQPVDLTFGAKYLLDIIKGSSLSDRVGIRLSSEAPALFQFDLKSGFLQFFLAPKFNDEE
As to B1, the binding result in experiment [1] and in experiment [2] was “binds” throughout.

B2: untagged PCNA (unmodified) (natural protein)
chain: B1 chain
On to B2, for which the binding result in experiment [3] and in experiment [4] was “binds” each time.
